{"source": "patent US7799901B2", "about": "“Modulators of the function of FAS receptors and other proteins” (Yeda Research and Development Co. Ltd., priority 1995, dated 2010)", "molecules": {"B1": {"name": "MORT-1: Mediator of Receptor-induced Toxicity; protein binding the intracellular domain of FAS-R, SEQ ID NO:2 (protein)", "chain": "VNQAPECRFGGGILGPLGKRRDLARASEPRTEGARRAGPQPRPLADPAMDPFLVLLHSVSSSLSSSELTELKFLCLGRVVKRKLERVQSGLDLFSMLLEQNDLEPGHTELLRELLASLRRHDLLRRVDDFEAGAAAGAAPGEEDLCAAFNVICDNVGKDWRRLARQLKVSDTKIDSIEDRYPRNLTERVRESLRIWKNTEKENATVAHLVGALRSCQMNLVADLVQEVQQARDLQNRSGAMSPMSWNSDASTSEAS"}}, "key": {"[1]": {"molecular_target": "T1, GST-Fas-IC fusion protein with a replacement at the lpr^eg mutation site (I225A) (Mus musculus, UniProt P25446, I246A)", "T1 construct": "GST fusion with Fas-IC containing a Ile to Ala replacement mutation at position 225; made in house; host or cells: E. coli", "T1 sequence (P25446 187-327 I246A)": "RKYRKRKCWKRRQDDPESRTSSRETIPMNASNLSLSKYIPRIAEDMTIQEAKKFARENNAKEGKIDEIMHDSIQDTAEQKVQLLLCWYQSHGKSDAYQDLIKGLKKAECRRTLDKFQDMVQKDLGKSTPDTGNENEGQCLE", "experiment": "In vitro binding to GST-Fas-IC with I225A replacement", "details": "[35S]-labeled protein from HeLa extracts; SDS-PAGE, autoradiography", "experimental": "Glutathione S-transferase (GST) fusions with the wild type or a mutated Fas-IC were produced and adsorbed to glutathione-agarose beads; see Boldin et al, 1995; Ausubel et al, 1994; Frangioni and Neel, 1993). Binding of metabolically-labeled FLAG-MORT-1 fusion protein to GST-Fas-IC was assessed by incubating the beads for 2 h at 4° C. with extracts of HeLa cells, metabolically labeled with [^35S]methionine (60 μCi/ml), that express FLAG-MORT-1. The extracts were prepared in a buffer containing 50 mM Tris-HCl, pH 7.5, 150 mM NaCl, 0.1% NP-40; 1 mM dithioteitol, 1 mM EDTA, 1 mM phenylmethylsulfonyl fluoride, 20 μg/ml Aprotonin, […] Leupeptin, 10 mM-sodium fluoride and 0.1 mM sodium vanadate (1 ml per 5×10^5 cells).\nExpression of MORT-1 molecules fused at their N terminus with the. FLAG octapeptide (FLAG-MORT-1) yielded in HeLa cells proteins of four distinct sizes—about […], 28, 32, and 34 kD. […] Thus, the in vitro interaction was evaluated by assessing, by autoradiography following SDS-PAGE, the binding of [35] metabolically labeled MORT-1, produced in transfected HeLa cells as a fusion with the FLAG octapeptide (FLAG-MORT-1), to GST, GST fusion with the human or mouse Fas-IC (GST-huFas-IC, GST-mFas-IC) or to GST fusion with Fas-IC containing a Ile to Ala replacement mutation at position 225."}, "CD40": {"molecular_target": "T2, CD40 (Homo sapiens, UniProt P25942)", "T2 construct": "human CD40 (CD40-IC, residues 216-277); expressed in transfected cells; host or cells: SFY526 yeast", "T2 sequence (P25942 216-277)": "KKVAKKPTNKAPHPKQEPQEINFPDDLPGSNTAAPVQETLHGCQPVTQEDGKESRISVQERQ", "experiment": "Two-hybrid test of MORT-1 binding (FIG. 1), CD40", "details": "CD40-IC residues 216-277, FIG. 1", "description": "To isolate proteins interacting with the intracellular domain of the FAS-R, the yeast two-hybrid system was used (Fields and Song, 1989). […] In this system, the genes for the candidate interacting proteins are cloned into separate expression vectors. In one expression vector, the sequence of the one candidate protein is cloned in phase with the sequence of the GAL4 DNA-binding domain to generate a hybrid protein with the GAL4 DNA-binding-domain, and in the other vector, the sequence of the second candidate protein is cloned in phase with the sequence of the GAL4 activation domain to generate a hybrid protein with the GAL4-activation domain. The two hybrid vectors are then co-transformed into a yeast host strain having a lacZ or HIS3 reporter gene under the control of upstream GAL4 binding sites. Only those transformed host cells (cotransformants) in which the two hybrid proteins are expressed and are capable of interacting with each other, will be capable of expressing the reporter gene. In the case of the lacZ reporter gene, host cells expressing this gene will become blue in color when X-gal is added to the cultures. […]\nIn FIG. 1, there is depicted the interaction of the proteins encoded by the Gal4 DNA binding domain and activation-domain constructs (pGBT9 and pGAD-GH) within transfected SFY526 yeasts as assessed by β-galactosidase expression filter assay. […]"}}}
{"molecule": "B1", "values": [{"measurement": "in vitro binding to GST-Fas-IC (I225A)", "setting": "[1]", "value": "did not bind"}, {"measurement": "binding to CD40 in two-hybrid test", "setting": "CD40", "value": "not"}]}
